The values below come from the Human Domainome abundance scans (Beltran et al. 2025).

± gives the uncertainty stated by the source.

Sequences and labels used below:
B1: Syntaxin-binding protein 4, residues 493 to 538; numbered along this chain, Q6ZWJ1 (parent)
chain: LDMDCLPYGWEEAYTADGIKYFINHVTQTTSWIHPVMSVLNLSRSE

In this series the parent is B1. The series is described as follows: abundance fitness (aPCA) (normalised: wild type 0, dead -1); higher = more abundant; growth selection in yeast, the domain comes from the species named. As to conditions: Homo sapiens.
In the case of S31F, the abundance fitness was -0.734 ± 0.12.
Regarding S31D, the abundance fitness was -0.89 ± 0.19.
To S31L belongs -0.788 ± 0.11.
With S31N, the abundance fitness is -0.953 ± 0.19.
S31C: the abundance fitness is -0.698 ± 0.15.
To S31A belongs -0.799 ± 0.12; to S31V, -0.373 ± 0.097.
To S31H belongs -0.94 ± 0.18.
Regarding S31Y, the abundance fitness is -0.879 ± 0.18.
On to S31G, for which the abundance fitness is -0.454 ± 0.1.
Regarding S31W, the abundance fitness is -0.922 ± 0.14.
As to S31K, the abundance fitness was -0.471 ± 0.12.
Regarding S31T, the abundance fitness came out at 0.199 ± 0.09.
For S31P, the abundance fitness is -0.788 ± 0.13.
For S31R, the abundance fitness is -0.818 ± 0.1.
As to S31M, the abundance fitness is -0.989 ± 0.14.
To S31I belongs -0.633 ± 0.16; to S31E, -0.724 ± 0.16; to H34R, -0.488 ± 0.082.
As for H34K, the abundance fitness was -0.686 ± 0.15.
The same measure for H34D: -0.54 ± 0.24.
For the variant H34I, the abundance fitness is -0.724 ± 0.19.
The same measure for H34E: -0.826 ± 0.13; for H34S: -0.443 ± 0.097; for H34P: -0.181 ± 0.11.
The same measure for H34N: -0.141 ± 0.13; for H34G: -0.822 ± 0.1; for H34V: -1 ± 0.14.
For the variant H34F, the abundance fitness is -1.14 ± 0.31.
To H34C belongs -0.439 ± 0.12; to H34Y, -0.689 ± 0.15.
The same measure for H34T: -0.877 ± 0.13.
Regarding H34M, the abundance fitness is -0.74 ± 0.17.
For the variant H34W, the abundance fitness was -1.11 ± 0.15.
As for H34Q, the abundance fitness was -0.555 ± 0.15.
On to G18E, for which the abundance fitness is -0.681 ± 0.13.
For G18M, the abundance fitness is -0.846 ± 0.14.
To G18Q belongs -0.661 ± 0.12; to G18I, -0.488 ± 0.22.
The same measure for G18V: -0.867 ± 0.095; for G18K: -0.453 ± 0.12.
The same measure for G18D: -0.576 ± 0.11; for G18P: -0.834 ± 0.12; for G18W: -0.493 ± 0.091.
With G18N, the abundance fitness is -0.845 ± 0.15.
To G18C belongs -0.902 ± 0.12; to G18S, -0.725 ± 0.091.
As for G18T, the abundance fitness was -0.949 ± 0.13.
As for G18Y, the abundance fitness is -0.787 ± 0.15.
The same measure for G18H: -0.862 ± 0.22.
On to I33H, for which the abundance fitness is -0.084 ± 0.14.
I33A: the abundance fitness was -0.248 ± 0.1.
As to I33L, the abundance fitness was -0.245 ± 0.089.
The same measure for I33Q: 0.064 ± 0.14; for I33N: -0.243 ± 0.19.
The same measure for I33D: 0.272 ± 0.15.
The same measure for I33T: -0.075 ± 0.12; for I33M: -0.091 ± 0.15; for I33R: -0.481 ± 0.094.
For the variant I33E, the abundance fitness was 0.511 ± 0.12.
The same measure for I33P: -0.897 ± 0.15.
The same measure for I33C: 0.031 ± 0.12.
To I33Y belongs -0.162 ± 0.17; to I33K, -0.276 ± 0.13; to I33F, -0.549 ± 0.22.
As for I33W, the abundance fitness was -0.743 ± 0.13.
As to I33G, the abundance fitness was -0.199 ± 0.088.
In the case of I33S, the abundance fitness came to 0.1 ± 0.1.
In the case of D17W, the abundance fitness was -0.835 ± 0.1.
To D17V belongs -0.648 ± 0.097; to D17Y, -0.881 ± 0.14; to F22L, -0.854 ± 0.094.
The same measure for F22T: -0.458 ± 0.1.
To F22Q belongs -0.823 ± 0.16; to F22I, -0.728 ± 0.16; to F22R, -0.872 ± 0.092.
With F22N, the abundance fitness is -0.787 ± 0.19.
The same measure for F22G: -0.782 ± 0.09; for F22D: -0.794 ± 0.22; for F22A: -0.956 ± 0.11.
As for F22S, the abundance fitness is -0.832 ± 0.11.
The same measure for F22E: -0.789 ± 0.14.
The same measure for F22P: -0.895 ± 0.15; for F22K: -0.637 ± 0.14; for F22C: -0.659 ± 0.12.
The same measure for F22V: -0.904 ± 0.099; for F22M: -0.44 ± 0.14.
As to T30D, the abundance fitness was -0.859 ± 0.14.
The same measure for T30G: -0.632 ± 0.085; for T30L: -0.512 ± 0.096; for T30F: -0.998 ± 0.26.
Regarding T30I, the abundance fitness is -0.936 ± 0.16.
T30E: the abundance fitness was -0.857 ± 0.13.
The same measure for T30N: -0.727 ± 0.25; for T30K: -0.692 ± 0.15.
The same measure for T30S: 0.363 ± 0.086; for T30Q: -0.624 ± 0.12; for T30R: -0.719 ± 0.093.
Consider T30C, for which the abundance fitness was -0.142 ± 0.14.
Regarding T30V, the abundance fitness is -0.691 ± 0.096.
The same measure for T30Y: -1 ± 0.32; for T30P: -0.857 ± 0.17.
The same measure for Q28H: -0.204 ± 0.13; for Q28C: -0.573 ± 0.13; for Q28V: -0.789 ± 0.098.
As to Q28P, the abundance fitness is -0.793 ± 0.14.
Turning to Q28M, the abundance fitness is 0.031 ± 0.14.
To Q28T belongs -0.81 ± 0.13; to Q28W, -0.695 ± 0.13.
The same measure for Q28S: -0.312 ± 0.091; for Q28I: -0.664 ± 0.16; for Q28E: -0.525 ± 0.12.
The same measure for Q28K: -0.027 ± 0.13.
Take Q28N: the abundance fitness was determined as 0.159 ± 0.12.
Turning to Q28L, the abundance fitness was -1 ± 0.13.
As for Q28A, the abundance fitness was -0.509 ± 0.11.
Regarding Q28D, the abundance fitness is -0.467 ± 0.13.
As for Q28G, the abundance fitness worked out at 0.294 ± 0.075.
Take Q28F: the abundance fitness was -0.422 ± 0.14.
In the case of Q28R, the abundance fitness was -0.316 ± 0.086.
As to I23T, the abundance fitness is -0.786 ± 0.16.
The same measure for I23D: -0.731 ± 0.28.
To I23G belongs -0.889 ± 0.092; to I23E, -1.08 ± 0.18.
The same measure for I23W: -0.811 ± 0.12.
Turning to I23N, the abundance fitness was -0.708 ± 0.3.
I23Y: the abundance fitness is -0.209 ± 0.16.
To I23H belongs -0.833 ± 0.42.
In the case of I23V, the abundance fitness stood at 0.023 ± 0.098.
To I23S belongs -0.49 ± 0.1; to I23F, -0.715 ± 0.19; to I23R, -0.241 ± 0.081.
Consider I23P, for which the abundance fitness was -0.4 ± 0.11.
To I23A belongs -0.781 ± 0.12; to I23C, -0.892 ± 0.15.
To I23M belongs -0.733 ± 0.18.
On to I23K, for which the abundance fitness is -0.282 ± 0.14.
Take I23Q: the abundance fitness is -0.829 ± 0.18.
Consider I23L, for which the abundance fitness was -0.57 ± 0.099.
To N24T belongs -0.909 ± 0.18.
With N24V, the abundance fitness is -0.74 ± 0.11.
On to N24L, for which the abundance fitness was -0.932 ± 0.16.
To N24M belongs -0.978 ± 0.27.
To N24K belongs -1.12 ± 0.28; to N24H, -0.282 ± 0.14; to N24R, -0.876 ± 0.12.
Take N24Y: the abundance fitness was -0.638 ± 0.23.
The same measure for N24G: -0.72 ± 0.092; for N24Q: -0.923 ± 0.2; for N24S: -0.93 ± 0.14.
The same measure for N24D: -0.668 ± 0.21; for N24F: -0.835 ± 0.21.
For the variant N24W, the abundance fitness was -0.609 ± 0.13.
Regarding N24E, the abundance fitness was -0.715 ± 0.14.
The same measure for N24C: -0.798 ± 0.16; for N24P: -0.837 ± 0.17.
To M37G belongs 0.059 ± 0.08; to M37H, -0.15 ± 0.17.
To M37F belongs -0.292 ± 0.18.
Regarding M37C, the abundance fitness came out at 0.056 ± 0.11.
On to M37A, for which the abundance fitness turned out to be 0.219 ± 0.093.
Consider M37E, for which the abundance fitness stood at 0.327 ± 0.095.
As for P35Q, the abundance fitness was -0.72 ± 0.14.
As for P35E, the abundance fitness was -0.634 ± 0.15.
To P35H belongs -0.83 ± 0.15.
To P35Y belongs -0.369 ± 0.15; to P35T, -0.686 ± 0.16.
